Laboratory results as given in US8865222B2, “Beta-casein assemblies for enrichment of food and beverages and methods of preparation thereof” (Technion Research and Development Foundation Ltd., priority 2008, dated 2014).

Tests used:
[1] = depending on temperature, pH, solvent composition and ionic strength (Portnaya 2006); cited from earlier work
[2] = Cryo-TEM of beta-casein micelles and vitamin D loaded assemblies; type: physicochemical
Protocol: • Cryo-TEM: Specimens were prepared in the controlled environment vitrification system (CEVS) (Bellare et al. Electron Microsc. Technique, 1988, 10; 87-111) at 24° C. and 100% relative humidity to avoid loss of volatiles. First, the solutions were incubated in the CEVS at the desired temperature for 1 h. Then, a 7 μL drop of each solution was placed on a TEM copper grid covered with a perforated carbon film (Pelco International) and blotted with filter paper to form a thin liquid film of the sample (100-200 nm thick). The thinned sample was plunged into liquid ethane at its freezing temperature (−183° C.) to form a vitrified specimen and then transferred to liquid nitrogen ([…]) for storage. The vitrified specimens were examined in a Philips CM120 transmission electron microscope operating at an accelerating voltage of 120 kV. We used an Oxford CT3500 (Oxford Instruments) cryoholder that maintained the specimens below −175° C. during sample transfer and observation. Images were recorded digitally on a cooled Gatan MultiScan 791 CCD camera using DigitalMicrograph 3.1 software (Gatan) in the low-dose imaging mode to minimize beam exposure and electron-beam radiation damage. • ITC: ITC measurements were performed with a VP-ITC calorimeter (MicroCal) at a temperature of 24° C. The reaction cell (V=1.43 mL) was filled with degassed solvent (lactic acid at pH 2.6, or phosphate buffer at pH 7.0). The injector-stirrer syringe (289 μL) was loaded with a beta-casein micellar solution (20 mg/mL). The micellar solution was injected into the reaction cell in 28 steps of 10 μL aliquots each, and the heat flow was measured. During the titration, the stirring speed was 310 rpm. The duration of each injection was 20 s, and the equilibration time between consecutive injections was 3 min. Such an interval was sufficient to equilibrate the reaction cell after every injection. Each experiment was performed at least three times. Calorimetric data analysis was carried out using Origin 5.0 software (MicroCal). • Analytical Ultracentrifugation: Sedimentation equilibrium experiments were performed at 24° C. using a Beckman Optima XL-A (Palo Alto, Calif.) analytical centrifuge at 6000, 10000, and 12000 rpm for the low-pH solutions and at 4000, 6000, and 8000 rpm for the pH 7.0 solutions. Data were collected at 280 nm. The beta-casein solutions were studied at concentrations ranging from 0.2 to 10.0 mg/mL at pH 2.6 and from 0.2 to 2 mg/mL at pH 7.0 and an ionic strength of 0.1. […] The average apparent molecular weight of the micelles at the various protein concentrations was calculated following methods well known in the art (The partial specific volume vj of the solute was taken to be 0.742 cm3/g3, and a solution density F of 1.0044 g/cm3 was measured). At beta-casein concentrations of 2 mg/mL and above under low pH conditions, the plot of the natural logarithm of the measured absorbance versus the square of the radius from the axis of rotation was not linear. To estimate Nagg, the limiting slope toward the outer edge of the sample cell was used to provide dln(c)/dr^2. The molecular weight calculated using this slope was divided by the monomer molecular weight calculated from the beta-casein amino acid sequence (24000).
• Characterization of the beta-casein micelles by cryo-TEM: The structural characteristics of the micelles in the two pH environments were studied by cryo-TEM and SAXS. Cryo-TEM was used to determine the shape of the micelles and to estimate their dimensions between 4 and 40° C. This information was further used to accurately calculate by SAXS the micelles' dimensions and to study how the size and shape are affected by temperature. SAXS measurements also provided the critical micelle concentration (CMC) and the micelle aggregation numbers as a function of temperature. […]

[3] = Turbidity (solution absorbance at 600 nm); type: physicochemical; settings: pH 2.6, empty assemblies, up to at least 2 wt %
[4] = lactic acid solution pH 2.6, 4-40 °C

B1: beta-casein: lyophilized bovine beta-casein (~24 kDa milk protein) self-assembled into nano-sized micelles at low or neutral pH (protein, UniProt P02666 16-224, looked up)
Beta-casein: RELEELNVPGEIVESLSSSEESITRINKKIEKFQSEEQQQTEDELQDKIHPFAQTQSLVYPFPGPIPNSLPQNIPPLTQTPVVVPPFLQPEVMGVSKVKEAMAPKHKEMPFPKYPVEPFTESQSLTLTDVENLHLPLPLLQSWMHQPHQPLPPTVMFPPQSVLSLSQSKVLPVPQKAVPYPQRDMPIQAFLLYQEPVLGPVRGPFPIIV
Question: With B1 as the molecule, how does the “critical micelle concentration (CMC)” value [1] read?
Answer: 0.05-0.2%

Question: What about the micelle shape ([2]; 20 mg/mL, pH 6.7, 0.05M NaCl, 4 °C and 10 °C) of the same molecule?
Answer: Flat micelles

Question: What about the micelle shape ([2]; 20 mg/mL, pH 6.7, 0.05M NaCl, 16, 25 and 40 °C) of the same molecule?
Answer: oblate micelles

Question: What about the micelle shape ([2]; 20 mg/mL, pH 6.7, 0.05M NaCl, 60 °C) of the same molecule?
Answer: Relatively spheroidal micelles

Question: What about the “length of elongated surfaces of micelles” value [2, 4] of the same molecule?
Answer: 20-25 nm

Question: And the micelle shape [2, 4]?
Answer: flat disk-like micelles

Question: And the micelle thickness [2, 4]?
Answer: 3-4 nm

Question: And the width of micelles ([2]; pH 2.6)?
Answer: about 3.5 nm

Question: What about the turbidity [3] of the same molecule?
Answer: does not vary significantly
